Read-outs that look alike come from different tables or passages of the source.
Tests used:
[1] = molecular target: T1, AFP158/HLA-A*02:01 complex (human); assay: SPR; vs AS170036 VL1VH1
T1 construct: biotinylated on the BSP by BirA for ELISA and panning; also called biotinylated AFP158/HLA-A*02:01 complex; Bio-AFP158

[2] = molecular target: T1, AFP158/HLA-A*02:01 complex; assay: SPR; vs AS170036 VL1VH1; remark: listed apart in the source
Description: (§1) The experiment was carried out as follows. The crude scFv protein were captured onto the sensorchip. Different concentrations (320, 160, 40 nM) of AFP158/HLA-A*02:01 complex flowed over the sensorchip surface, and were allowed to bind the antibody fragment for 100 s followed by injection of the running buffer to allow dissociation of the complex. On-rate (kd) and off-rate (kd) were calculated based on association and dissociation curve, and were used to estimate the equilibrium dissociation constant (KD).

[3] = molecular target: T1, AFP158/HLA-A*02:01 complex; assay: SPR, crude scFv captured;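 note: Peptide–MHC complex flowed at several concentrations over sensorchip-captured scFv, Kd derived from on- and off-rates obtained from the association and dissociation curves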
Description: as §1

[4] = molecular target: PTP4A1 peptide/HLA-A*02:01 complex (recombinant) (human); assay: SPR
[5] = molecular target: NR2E1 peptide/HLA-A*02:01 complex (recombinant) (human); assay: SPR
[6] = molecular target: ATG9A peptide/HLA-A*02:01 complex (recombinant) (human); assay: SPR
[7] = molecular target: OR51B6 peptide/HLA-A*02:01 complex (recombinant) (human); assay: SPR
[8] = molecular target: BRCA2 peptide/HLA-A*02:01 complex (recombinant) (human); assay: SPR
[9] = molecular target: OR1I1 peptide/HLA-A*02:01 complex (recombinant) (human); assay: SPR
[10] = molecular target: RP1 peptide/HLA-A*02:01 complex (recombinant) (human, UniProt P16213 21-119 (Pongo pygmaeus entry)); assay: SPR
[11] = molecular target: CDC14A peptide/HLA-A*02:01 complex (recombinant) (human); assay: SPR
[12] = molecular target: ZNF566 peptide/HLA-A*02:01 complex (recombinant) (human); assay: SPR
[13] = molecular target: RCL1 peptide/HLA-A*02:01 complex (recombinant) (human, UniProt P16213 21-119 (Pongo pygmaeus entry)); assay: SPR

Binder | Affinity increase [1] [fold] | Affinity increase [2] [fold] | Kd [3] [nM] | binding result [4] | binding result [5] | binding result [6] | binding result [7] | binding result [8] | binding result [9] | binding result [10] | binding result [11] | binding result [12] | binding result [13]
AS170036 VL1VH1-VHS57H (scFv) scFv: QSALTQPRSVSGSPGQSVTISCAGTSSDVGSENYVSWYQQHPGKAPKLMIYQVNKRASGVPDRFSGSKSGNTASLTISGLQAEDEADYYCASYRSSDHNIVFGGGTKLTVLGGGGSGGGGSGGGGSEVQLVESGGGLVQPGGSLRLSCAASGFTFSSYAMSWVRQAPGKGLEWVSTINSGTGHPYYADSVKGRFTISRDNSKNTLYLQMNSLRAEDTAVYYCAKNFFDGSWFLGPPAMDYWGQGTLVTVSSHHHHHH | > 2 | 6.9 | 35 | no binding (tested: all below 3.5 RU) | no binding (tested: all below 3.5 RU) | no binding (tested: all below 3.5 RU) | no binding (tested: all below 3.5 RU) | no binding (tested: all below 3.5 RU) | no binding (tested: all below 3.5 RU) | no binding (tested: all below 3.5 RU) | no binding (tested: all below 3.5 RU) | no binding (tested: all below 3.5 RU) | no binding (tested: all below 3.5 RU)
AS170036 VL1VH1-VHG108D (scFv) scFv: QSALTQPRSVSGSPGQSVTISCAGTSSDVGSENYVSWYQQHPGKAPKLMIYQVNKRASGVPDRFSGSKSGNTASLTISGLQAEDEADYYCASYRSSDHNIVFGGGTKLTVLGGGGSGGGGSGGGGSEVQLVESGGGLVQPGGSLRLSCAASGFTFSSYAMSWVRQAPGKGLEWVSTINSGTGSPYYADSVKGRFTISRDNSKNTLYLQMNSLRAEDTAVYYCAKNFFDGSWFLDPPAMDYWGQGTLVTVSSHHHHHH | > 2 | 5.5 | 42 | no binding (tested: all below 3.5 RU) | no binding (tested: all below 3.5 RU) | no binding (tested: all below 3.5 RU) |  | no binding (tested: all below 3.5 RU) | no binding (tested: all below 3.5 RU) | no binding (tested: all below 3.5 RU) | no binding (tested: all below 3.5 RU) | no binding (tested: all below 3.5 RU) | no binding (tested: all below 3.5 RU)
AS170036 VL1VH1-VHG108S (scFv) scFv: QSALTQPRSVSGSPGQSVTISCAGTSSDVGSENYVSWYQQHPGKAPKLMIYQVNKRASGVPDRFSGSKSGNTASLTISGLQAEDEADYYCASYRSSDHNIVFGGGTKLTVLGGGGSGGGGSGGGGSEVQLVESGGGLVQPGGSLRLSCAASGFTFSSYAMSWVRQAPGKGLEWVSTINSGTGSPYYADSVKGRFTISRDNSKNTLYLQMNSLRAEDTAVYYCAKNFFDGSWFLSPPAMDYWGQGTLVTVSSHHHHHH | > 2 | 2.8 | 96 | no binding (tested: all below 3.5 RU) | no binding (tested: all below 3.5 RU) | no binding (tested: all below 3.5 RU) | no binding (tested: all below 3.5 RU) | no binding (tested: all below 3.5 RU) | no binding (tested: all below 3.5 RU) | no binding (tested: all below 3.5 RU) | no binding (tested: all below 3.5 RU) | no binding (tested: all below 3.5 RU) | no binding (tested: all below 3.5 RU)
AS170036 VL1VH1-VHG108A (scFv) scFv: QSALTQPRSVSGSPGQSVTISCAGTSSDVGSENYVSWYQQHPGKAPKLMIYQVNKRASGVPDRFSGSKSGNTASLTISGLQAEDEADYYCASYRSSDHNIVFGGGTKLTVLGGGGSGGGGSGGGGSEVQLVESGGGLVQPGGSLRLSCAASGFTFSSYAMSWVRQAPGKGLEWVSTINSGTGSPYYADSVKGRFTISRDNSKNTLYLQMNSLRAEDTAVYYCAKNFFDGSWFLAPPAMDYWGQGTLVTVSSHHHHHH | > 2 | 5.5 | 42 | no binding (tested: all below 3.5 RU) | no binding (tested: all below 3.5 RU) | no binding (tested: all below 3.5 RU) |  | no binding (tested: all below 3.5 RU) | no binding (tested: all below 3.5 RU) | no binding (tested: all below 3.5 RU) | no binding (tested: all below 3.5 RU) | no binding (tested: all below 3.5 RU) | no binding (tested: all below 3.5 RU)

Further binders by falling Kd [3], results first:

Affinity increase [1] [fold] | Affinity increase [2] [fold] | Kd [3] [nM] | binding result [4] | binding result [5] | binding result [6] | binding result [7] | binding result [8] | binding result [9] | binding result [10] | binding result [11] | binding result [12] | binding result [13] | Binder
> 2 | 2.5 | 92 | no binding (tested: all below 3.5 RU) | no binding (tested: all below 3.5 RU) | no binding (tested: all below 3.5 RU) | no binding (tested: all below 3.5 RU) | no binding (tested: all below 3.5 RU) | no binding (tested: all below 3.5 RU) | no binding (tested: all below 3.5 RU) | no binding (tested: all below 3.5 RU) | no binding (tested: all below 3.5 RU) | no binding (tested: all below 3.5 RU) | AS170036 VL1VH1-VHG56N (scFv) scFv: QSALTQPRSVSGSPGQSVTISCAGTSSDVGSENYVSWYQQHPGKAPKLMIYQVNKRASGVPDRFSGSKSGNTASLTISGLQAEDEADYYCASYRSSDHNIVFGGGTKLTVLGGGGSGGGGSGGGGSEVQLVESGGGLVQPGGSLRLSCAASGFTFSSYAMSWVRQAPGKGLEWVSTINSGTNSPYYADSVKGRFTISRDNSKNTLYLQMNSLRAEDTAVYYCAKNFFDGSWFLGPPAMDYWGQGTLVTVSSHHHHHH
> 2 | 2.7 | 90 | no binding (tested: all below 3.5 RU) | no binding (tested: all below 3.5 RU) | no binding (tested: all below 3.5 RU) | no binding (tested: all below 3.5 RU) | no binding (tested: all below 3.5 RU) | no binding (tested: all below 3.5 RU) | no binding (tested: all below 3.5 RU) | no binding (tested: all below 3.5 RU) | no binding (tested: all below 3.5 RU) | no binding (tested: all below 3.5 RU) | AS170036 VL1VH1-VHS57M (scFv) scFv: QSALTQPRSVSGSPGQSVTISCAGTSSDVGSENYVSWYQQHPGKAPKLMIYQVNKRASGVPDRFSGSKSGNTASLTISGLQAEDEADYYCASYRSSDHNIVFGGGTKLTVLGGGGSGGGGSGGGGSEVQLVESGGGLVQPGGSLRLSCAASGFTFSSYAMSWVRQAPGKGLEWVSTINSGTGMPYYADSVKGRFTISRDNSKNTLYLQMNSLRAEDTAVYYCAKNFFDGSWFLGPPAMDYWGQGTLVTVSSHHHHHH
> 2 | 4.4 | 56 | no binding (tested: all below 3.5 RU) | no binding (tested: all below 3.5 RU) | no binding (tested: all below 3.5 RU) | no binding (tested: all below 3.5 RU) | no binding (tested: all below 3.5 RU) | no binding (tested: all below 3.5 RU) | no binding (tested: all below 3.5 RU) | no binding (tested: all below 3.5 RU) | no binding (tested: all below 3.5 RU) | no binding (tested: all below 3.5 RU) | AS170036 VL1VH1-VHS57K (scFv) scFv: QSALTQPRSVSGSPGQSVTISCAGTSSDVGSENYVSWYQQHPGKAPKLMIYQVNKRASGVPDRFSGSKSGNTASLTISGLQAEDEADYYCASYRSSDHNIVFGGGTKLTVLGGGGSGGGGSGGGGSEVQLVESGGGLVQPGGSLRLSCAASGFTFSSYAMSWVRQAPGKGLEWVSTINSGTGKPYYADSVKGRFTISRDNSKNTLYLQMNSLRAEDTAVYYCAKNFFDGSWFLGPPAMDYWGQGTLVTVSSHHHHHH
> 2 | 6.6 | 35 | no binding (tested: all below 3.5 RU) | no binding (tested: all below 3.5 RU) | no binding (tested: all below 3.5 RU) | no binding (tested: all below 3.5 RU) | no binding (tested: all below 3.5 RU) | no binding (tested: all below 3.5 RU) | no binding (tested: all below 3.5 RU) | no binding (tested: all below 3.5 RU) | no binding (tested: all below 3.5 RU) | no binding (tested: all below 3.5 RU) | AS170036 VL1VH1-VHG56Y (scFv) scFv: QSALTQPRSVSGSPGQSVTISCAGTSSDVGSENYVSWYQQHPGKAPKLMIYQVNKRASGVPDRFSGSKSGNTASLTISGLQAEDEADYYCASYRSSDHNIVFGGGTKLTVLGGGGSGGGGSGGGGSEVQLVESGGGLVQPGGSLRLSCAASGFTFSSYAMSWVRQAPGKGLEWVSTINSGTYSPYYADSVKGRFTISRDNSKNTLYLQMNSLRAEDTAVYYCAKNFFDGSWFLGPPAMDYWGQGTLVTVSSHHHHHH

Source: patent publication US20240279318A1 (NANJING LEGEND BIOTECH, published 2024)
